± gives the uncertainty stated by the source.
Experiment: amyloid nucleation score (Sup35N fusion, yeast selection) (log enrichment); library NNK1; higher = more nucleation; inactive = no reads after selection
Summary of the method: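 Peptides of 20 random codons, each fused to Sup35N, were expressed in psi-negative yeast. Cells were induced with 100 μM copper sulfate for 24 hours and grown 7 days at 30°C on medium lacking adenine and uracil, and plasmid inserts before and after selection were Illumina-sequenced. Nucleation scores are DiMSum log enrichments of output over input reads, centred on the mode score of non-aggregating sequences, and sequences under 100 input reads were excluded.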

| Substance | amyloid nucleation score |
| --- | --- |
| FKSYPVGIRRHCHGTSMLMG | 0.059 ± 0.31 |
| FKTRSRNRLVCCYEESRTDL | 0.536 ± 0.34 |
| FKVTFNRDVPNESSTALCSV | -1.01 ± 1.7 |
| FKYSFMIYNLARSVCYCTVS | -0.002 ± 1.4 |
| FKYSGRCWGANECIKNYNYV | 0.07 ± 0.39 |
| FLCVF | 0.097 ± 0.88 |
| FLFLPVSVSYYEDDSGHVLC | inactive |
| FLGLLVPFFNWRDKKRKYSG | 0.012 ± 0.79 |
| FLGPIAIVGRHLMICIMQSH | 0.855 ± 0.43 |
| FLKLPFTKSSWSF | -0.317 ± 1.4 |
| FLKSYLLRC | 0.012 ± 0.63 |
| FLLAPTLL | -0.367 ± 1 |
| FLLDMV | -0.175 ± 0.45 |
| FLLLAC | 0.197 ± 0.9 |
| FLLLTSMNPLEWTYGRFWGV | -0.597 ± 0.72 |
| FLLNSPQNASYSPHRRLAFD | -1.38 ± 0.92 |
| FLNFPYMLRDCLMIRFIELE | inactive |
| FLPMSLGWVHKQLIFSPRWY | 1 ± 0.66 |
| FLPWVLFFSQ | 0.816 ± 0.62 |
| FLRCRFLYQQ | 0.4 ± 0.39 |
| FLRHLSSCCHLATLCVDWGA | -0.103 ± 1.4 |
| FLRNNKIPVVFFSPS | inactive |
| FLSRCGWAYVMV | -0.493 ± 0.26 |
| FLSSCDGGLIGMHGTGFTAQ | 0.426 ± 0.45 |
| FLSYYTCILFPGDMHGSYLS | 7.226 ± 0.055 |
| FLTFKMN | inactive |

| Substance | amyloid nucleation score |
| --- | --- |
| FLTTLGWSYHRQNQLRMPRF | 2.24 ± 0.16 |
| FLVHSTGGHVNISFTSVIYL | 7.889 ± 0.048 |
| FLYPVHLVLHCSTSYMQTDS | 0.241 ± 1.2 |
| FLYRSYVNIGLGGANISNLV | 4.3 ± 0.12 |
| FMAGNFSFFLRRNA | inactive |
| FMDMDRLMSRGLQVNKGVML | -0.228 ± 0.68 |
| FMDWIVSCGKCKIGSYYLCI | -0.388 ± 0.29 |
| FMLWCQFKRDNIKRTDRLAV | 1.46 ± 0.78 |
| FMSEDESYVCYRWGWYDRIF | -0.919 ± 1 |
| FMSYFVPSQQYLTASSRQKT | -0.544 ± 1.1 |
| FMVLDQFIE | 0.383 ± 0.95 |
| FMYSKPVI | -0.314 ± 0.78 |
| FNDGYSVAEA | 0.998 ± 0.48 |
| FNFCHE | -0.392 ± 0.6 |
| FNFRSS | -0.618 ± 0.72 |
| FNIAALSEYCGPLKSNAHW | -0.27 ± 0.64 |
| FNIYSQMYIW | 5.32 ± 0.066 |
| FNKYYMFEST | -0.038 ± 0.33 |
| FNLALDRGR | -0.062 ± 0.32 |
| FNLATIPISQFITPNSPLLR | -0.091 ± 1.1 |
| FNLGSGDWL | -0.842 ± 0.65 |
| FNSFCFQNVTLW | inactive |
| FNVHNWAQRTVEHGETLFRD | 1.57 ± 0.45 |
| FNYFVLFSLSFSTVFSFNDT | 3.37 ± 0.081 |
| FNYFYVLYS | 5.35 ± 0.074 |
| FNYYSA | -0.012 ± 0.48 |

| Substance | amyloid nucleation score |
| --- | --- |
| FPDLYVWRCWKSQGHSWHGV | 0.573 ± 0.52 |
| FPGSRDPGVNRSWSYNSIDT | 1.87 ± 0.14 |
| FQAQWNLSTCPNAFCLFLIR | 5.82 ± 0.059 |
| FQDLSLAVSQCLPCVIIGDC | -0.131 ± 0.44 |
| FQGTIR | 0.193 ± 1 |
| FQSSNSSYITIHYCLVGRFT | 6.013 ± 0.048 |
| FQYEWNLVIW | -0.074 ± 0.4 |
| FRCGKGVVMSYELVNSIVGS | 0.407 ± 0.76 |
| FRDCLLVRYLCNVLTGDCTH | 1.94 ± 0.52 |
| FRGTVFSW | -0.26 ± 0.69 |
| FRIRRGKRSVHTVNFAFAEV | 0.583 ± 0.8 |
| FRLLRSK | 0.644 ± 0.56 |
| FRMRHQERMAGTPVGMGLYC | -0.327 ± 0.69 |
| FRRHYNKMNFFVGFRERMCG | -0.262 ± 0.49 |
| FRRLHRYRWDNECLGMQVGS | -1.48 ± 2.1 |
| FRRLMLWSCSV | -0.098 ± 1.3 |
| FRSVVWRLHTFY | -0.075 ± 0.5 |
| FRTRGFLHSKVLVRLQYWIK | 0.494 ± 0.5 |
| FRVQVTYIFRSLEICDPTVG | inactive |
| FRYGYLFKLSNVWIDDMLRR | 1.96 ± 0.55 |
| FRYYRF | 0.522 ± 0.45 |
| FSACLSNIYD | inactive |
| FSCSTCNVCNERHPEVFTYD | 1.15 ± 0.51 |
| FSIKHPLSSGSKISCVA | -1.23 ± 1.7 |
| FSKVGCDKVIRPGKVPFRSF | 0.491 ± 0.9 |
| FSLRDISNISIWAYLNQPCR | -0.341 ± 0.32 |

| Substance | amyloid nucleation score |
| --- | --- |
| FSMVAESRIEGILRFS | 0.409 ± 0.22 |
| FSNAIKQVFQGYLWTNPW | -0.188 ± 0.3 |
| FSQYVGDFYILMRVSFEFMK | 0.033 ± 0.44 |
| FSRFLYEYGCGELVATFLPW | 0.517 ± 0.24 |
| FSRSWGDCIGERCGVV | 0.307 ± 0.38 |
| FSSYPLGFRNRRDTVDMTIV | 0.018 ± 0.38 |
| FSTGNPWVD | -0.342 ± 0.8 |
| FSVKFVSNPFSQLLSARPWW | -0.603 ± 0.34 |
| FSVWGLRLTRARMQTERVLL | 0.86 ± 0.59 |
| FTALPSTVVIVQHTLHLDSF | 6.48 ± 0.066 |
| FTCRFFVCFGLCGDHEHSPI | 7.561 ± 0.057 |
| FTDTEYLQGLDIGVGMERLY | -0.218 ± 0.65 |
| FTLHYCLMDAFWGSSMDRGV | 0.275 ± 0.41 |
| FTSRYLDF | 0.382 ± 1.2 |
| FTVSLTSLYYISITGLLARR | -0.115 ± 0.52 |
| FTVVLYLSVVLKFKDAGEEG | 4.09 ± 0.092 |
| FVAGDSLTHARKYAVQRL | -1.08 ± 0.59 |
| FVAVNILDMMKAYKLFENLF | -0.256 ± 0.22 |
| FVCWRYRCFLWELEEDGLVN | 0.627 ± 0.71 |
| FVFHVGDDARGSCHKCRLWN | 0.665 ± 0.62 |
| FVGFGWYCLDFFHFLNASLG | -0.29 ± 1.4 |
| FVGGVSSERYLFGWLS | -1.51 ± 1 |
| FVHDLWLGYGVNFLIAVMCS | 0.209 ± 0.34 |
| FVHPLMYSDS | -0.386 ± 0.43 |
| FVINSTIRKVFFGFPDWCMC | -0.135 ± 0.3 |
| FVKGRGNKTQVWHESVYKDA | -0.203 ± 0.54 |

| Substance | amyloid nucleation score |
| --- | --- |
| FVKNSKHYRPFLNGSKRM | 0.475 ± 0.83 |
| FVLFRLFEFASNIRVTFFF | -0.833 ± 0.62 |
| FVLGDCCDIFSSYNQIMYIS | 3.26 ± 0.12 |
| FVLGWQI | 1.63 ± 0.56 |
| FVMFLPIYEF | -0.35 ± 0.8 |
| FVRIRYITGRITSDRRREFC | 0.591 ± 1 |
| FVSNYYYV | 1.95 ± 0.17 |
| FVSRGLYGVLGTVSFLL | -2.07 ± 1.6 |
| FVSWLFVS | -1.4 ± 0.98 |
| FVVAVGLIVFD | 0.027 ± 1.7 |
| FVVEWWLASRMGLLIRGYRR | -0.462 ± 0.58 |
| FVVRLRLLANLWWYNCCKCS | 0.748 ± 0.43 |
| FWCISVRVNYNGYYVYF | 1.2 ± 0.26 |
| FWELECADIAVKSKGGCQGC | -0.402 ± 0.44 |
| FWGCTQMSRLDATDVSL | 0.867 ± 1 |
| FWGNGQRVNSNIQRDVKWDA | -0.199 ± 0.45 |
| FWIEGP | 0.564 ± 0.9 |
| FWSYLSGLVGMYGQIVIKKA | 0.059 ± 0.79 |
| FWYSNIYSIFMLPVIVWEPN | 6.515 ± 0.053 |
| FYCPRIKNVFSEICIC | 3.79 ± 0.1 |
| FYHKTFVYKEGLNGAALLGM | -0.023 ± 0.48 |
| FYRCRRSRNGGISDVFRIIP | 0.242 ± 0.3 |
| FYRSQMIFFYMLVAPMWGRL | -0.599 ± 0.56 |
| FYSCIYYGHMLVELPDMLEL | -0.056 ± 0.35 |

— the supplement of paper PMC12042874
